According to paper PMC12666738:
Changes are numbered by the printed parent chain. In names and notes the source's numbering stands.

T1: GST-tagged C-terminal domain of CNTNAP2, Q9UHC6
T1 chain: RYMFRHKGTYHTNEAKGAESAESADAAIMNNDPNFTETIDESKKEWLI

T2: GST-tagged C-terminal domain of Nrxn1β, Q63373
T2 chain: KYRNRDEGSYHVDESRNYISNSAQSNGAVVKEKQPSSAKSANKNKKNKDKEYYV

T3: GST-tagged C-terminal domain of SALM1, Q9ULH4
T3 chain: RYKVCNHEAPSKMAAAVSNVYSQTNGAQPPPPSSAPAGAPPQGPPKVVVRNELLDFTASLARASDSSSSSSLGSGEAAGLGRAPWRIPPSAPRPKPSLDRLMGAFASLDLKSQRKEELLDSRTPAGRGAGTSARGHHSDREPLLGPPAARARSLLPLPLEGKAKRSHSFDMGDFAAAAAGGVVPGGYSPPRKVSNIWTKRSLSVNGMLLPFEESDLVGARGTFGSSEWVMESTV

B1: His6-SUMO-tagged CASK PSG supramodule WT, O14936-2 Y723C (protein)
chain: MADDDVLFEDVYELCEVIGKGPFSVVRRCINRETGQQFAVKIVDVAKFTSSPGLSTEDLKREASICHMLKHPHIVELLETYSSDGMLYMVFEFMDGADLCFEIVKRADAGFVYSEAVASHYMRQILEALRYCHDNNIIHRDVKPHCVLLASKENSAPVKLGGFGVAIQLGESGLVAGGRVGTPHFMAPEVVKREPYGKPVDVWGCGVILFILLSGCLPFYGTKERLFEGIIKGKYKMNPRQWSHISESAKDLVRRMLMLDPAERITVYEALNHPWLKERDRYAYKIHLPETVEQLRKFNARRKLKGAVLAAVSSHKFNSFYGDPPEELPDFSEDPTSSGLLAAERAVSQVLDSLEEIHALTDCSEKDLDFLHSVFQDQHLHTLLDLYDKINTKSSPQIRNPPSDAVQRAKEVLEEISCYPENNDAKELKRILTQPHFMALLQTHDVVAHEVYSDEALRVTPPPTSPYLNGDSPESANGDMDMENVTRVRLVQFQKNTDEPMGITLKMNELNHCIVARIMHGGMIHRQGTLHVGDEIREINGISVANQTVEQLQKMLREMRGSITFKIVPSYRTQSSSCERDSPSTSRQSPANGHSSTNNSVSDLPSTTQPKGRQIYVRAQFEYDPAKDDLIPCKEAGIRFRVGDIIQIISKDDHNWWQGKLENSKNGTAGLIPSPELQEWRVACIAMEKTKQEQQASCTWFGKKKKQYKDKYLAKHNADLVTCEEVVKLPAFKRKTLVLLGAHGVGRRHIKNTLITKHPDRFAYPIPHTTRPPKKDEENGKNYYFVSHDQMMQDISNNEYLEYGSHEDAMYGTKLETIRKIHEQGLIAILDVEPQALKVLRTAEFAPFVVFIAAPTITPGLNEDESLQRLQKESDILQRTYAHYFDLTIINNEIDETIRHLEEAVELVCTAPQWVPVSWVY
B2: His6-SUMO-tagged CASK PSG supramodule WT, O14936-2 P673L (protein)
chain: B1 chain with P673L, C723Y
B3: His6-SUMO-tagged CASK PSG supramodule WT, O14936-2 G521V (protein)
chain: MADDDVLFEDVYELCEVIGKGPFSVVRRCINRETGQQFAVKIVDVAKFTSSPGLSTEDLKREASICHMLKHPHIVELLETYSSDGMLYMVFEFMDGADLCFEIVKRADAGFVYSEAVASHYMRQILEALRYCHDNNIIHRDVKPHCVLLASKENSAPVKLGGFGVAIQLGESGLVAGGRVGTPHFMAPEVVKREPYGKPVDVWGCGVILFILLSGCLPFYGTKERLFEGIIKGKYKMNPRQWSHISESAKDLVRRMLMLDPAERITVYEALNHPWLKERDRYAYKIHLPETVEQLRKFNARRKLKGAVLAAVSSHKFNSFYGDPPEELPDFSEDPTSSGLLAAERAVSQVLDSLEEIHALTDCSEKDLDFLHSVFQDQHLHTLLDLYDKINTKSSPQIRNPPSDAVQRAKEVLEEISCYPENNDAKELKRILTQPHFMALLQTHDVVAHEVYSDEALRVTPPPTSPYLNGDSPESANGDMDMENVTRVRLVQFQKNTDEPMGITLKMNELNHCIVARIMHVGMIHRQGTLHVGDEIREINGISVANQTVEQLQKMLREMRGSITFKIVPSYRTQSSSCERDSPSTSRQSPANGHSSTNNSVSDLPSTTQPKGRQIYVRAQFEYDPAKDDLIPCKEAGIRFRVGDIIQIISKDDHNWWQGKLENSKNGTAGLIPSPELQEWRVACIAMEKTKQEQQASCTWFGKKKKQYKDKYLAKHNAVFDQLDLVTYEEVVKLPAFKRKTLVLLGAHGVGRRHIKNTLITKHPDRFAYPIPHTTRPPKKDEENGKNYYFVSHDQMMQDISNNEYLEYGSHEDAMYGTKLETIRKIHEQGLIAILDVEPQALKVLRTAEFAPFVVFIAAPTITPGLNEDESLQRLQKESDILQRTYAHYFDLTIINNEIDETIRHLEEAVELVCTAPQWVPVSWVY

How the values were obtained:
[1] = target: mRFP-tagged CASK I672V (human) (UniProt O14936); experiment: co-IP; HEK293T cells cotransfected, lysed in RIPA buffer 24 h after transfection; mRFP-tagged CASK precipitated with magnetic RFP-Trap beads, 2 h at 4°C, five washes in RIPA; Western blot
[2] = target: T1, GST-tagged C-terminal domain of …; experiment: pull-down; settings: chain shown with the change; n = 4; His6-signals normalized to GST-signals derived from the same blot; parent: est. 3.1; read off a plot
[3] = target: T2, GST-tagged C-terminal domain of Nrxn1β, …; experiment: pull-down; settings: chain shown with the change; n = 4; His6-signals normalized to GST-signals derived from the same blot; parent: est. 2.9; read off a plot
[4] = target: T3, GST-tagged C-terminal domain of SALM1, …; experiment: pull-down; settings: chain shown with the change; n = 4; His6-signals normalized to GST-signals derived from the same blot; parent: est. 0.85; read off a plot

| Molecule | reduction of bound Nrxn1β against CASK WT [1] [%] | response [2] | response [3] | response [4] |
| --- | --- | --- | --- | --- |
| HA-tagged Neurexin-1β (from UniProt Q63373 47-468) (natural protein) | 50 | – | – | – |
| B1 | – | 0.45 | 0.9 | 0.15 |
| B2 | – | 0.45 | 1 | 0.15 |
| B3 | – | 1.5 | 0.9 | 0.7 |
